Starred links: 1 amine or outer side, 2 acyl side, 3 side chain; linkers in the order of their positions; H or OH if unused. Non-standard residues stand in square brackets, D forms with d. *: point of attachment. Asn(Me) = N-omega-methylasparagine, CNC(=O)C[C@H](N[*:1])C(=O)[*:2]; Phe(4-NH2) = Nc1ccc(C[C@H](N)C(=O)O)cc1; 1Nal = N[C@@H](Cc1cccc2ccccc12)C(=O)O; Cyclohexanecarbonyl = O=C(C1CCCCC1)*; Arg(Me) = CNC(=N)NCCC[C@H](N)C(=O)O; tBuAla = CC(C)(C)C[C@H](N)C(=O)O; 4Pal = N[C@@H](Cc1ccncc1)C(=O)O; Cha = N[C@@H](CC1CCCCC1)C(=O)O; Suc = O=C(CCC(=O)[*:2])[*:1]; dIva = CC[C@@](C)(N)C(=O)O; Iva = CC[C@](C)(N)C(=O)O; Dap = NC[C@H](N)C(=O)O; Aib = CC(C)(N)C(=O)O; Bz = O=C(c1ccccc1)*; Ahx = NCCCCCC(=O)O
B1: Benzoyl-[Cha27,36, Ile28, Arg(Me)31]-PYY(25-36) (peptide)
peptide: Bz-RH[Cha]INL[Arg(Me)]TRQR[Cha]-NH2
SMILES: CC[C@H](C)[C@H](NC(=O)[C@H](CC1CCCCC1)NC(=O)[C@H](Cc1c[nH]cn1)NC(=O)[C@H](CCCNC(=N)N)NC(=O)c1ccccc1)C(=O)N[C@@H](CC(N)=O)C(=O)N[C@@H](CC(C)C)C(=O)N[C@@H](CCCNC(=N)NC)C(=O)N[C@H](C(=O)N[C@@H](CCCNC(=N)N)C(=O)N[C@@H](CCC(N)=O)C(=O)N[C@@H](CCCNC(=N)N)C(=O)N[C@@H](CC1CCCCC1)C(N)=O)[C@@H](C)O
B2: Ac-[D-Pro24, D-Iva25, Cha27,28,36, Aib31]-PYY(23-36) (peptide)
peptide: Ac-S[dP][dIva]H[Cha][Cha]NL[Aib]TRQR[Cha]-NH2
SMILES: CC[C@@](C)(NC(=O)[C@H]1CCCN1C(=O)[C@H](CO)NC(C)=O)C(=O)N[C@@H](Cc1c[nH]cn1)C(=O)N[C@@H](CC1CCCCC1)C(=O)N[C@@H](CC1CCCCC1)C(=O)N[C@@H](CC(N)=O)C(=O)N[C@@H](CC(C)C)C(=O)NC(C)(C)C(=O)N[C@H](C(=O)N[C@@H](CCCNC(=N)N)C(=O)N[C@@H](CCC(N)=O)C(=O)N[C@@H](CCCNC(=N)N)C(=O)N[C@@H](CC1CCCCC1)C(N)=O)[C@@H](C)O
B3: Benzoyl-[Cha27,36, Ile28,31, Phe(4NH2)30]-PYY(25-36) (peptide)
peptide: Bz-RH[Cha]IN[Phe(4-NH2)]ITRQR[Cha]-NH2
SMILES: CC[C@H](C)[C@H](NC(=O)[C@H](CC1CCCCC1)NC(=O)[C@H](Cc1c[nH]cn1)NC(=O)[C@H](CCCNC(=N)N)NC(=O)c1ccccc1)C(=O)N[C@@H](CC(N)=O)C(=O)N[C@@H](Cc1ccc(N)cc1)C(=O)N[C@H](C(=O)N[C@H](C(=O)N[C@@H](CCCNC(=N)N)C(=O)N[C@@H](CCC(N)=O)C(=O)N[C@@H](CCCNC(=N)N)C(=O)N[C@@H](CC1CCCCC1)C(N)=O)[C@@H](C)O)[C@@H](C)CC
B4: Benzoyl-[Cha27,28,36, Aib31]-PYY(25-36) (peptide)
peptide: Bz-RH[Cha][Cha]NL[Aib]TRQR[Cha]-NH2
SMILES: CC(C)C[C@H](NC(=O)[C@H](CC(N)=O)NC(=O)[C@H](CC1CCCCC1)NC(=O)[C@H](CC1CCCCC1)NC(=O)[C@H](Cc1c[nH]cn1)NC(=O)[C@H](CCCNC(=N)N)NC(=O)c1ccccc1)C(=O)NC(C)(C)C(=O)N[C@H](C(=O)N[C@@H](CCCNC(=N)N)C(=O)N[C@@H](CCC(N)=O)C(=O)N[C@@H](CCCNC(=N)N)C(=O)N[C@@H](CC1CCCCC1)C(N)=O)[C@@H](C)O
B5: Ac-[D-Pro24, Cha27,28,36, D-Iva29, Aib31]-PYY(23-36) (peptide)
peptide: Ac-S[dP]RH[Cha][Cha][dIva]L[Aib]TRQR[Cha]-NH2
SMILES: CC[C@@](C)(NC(=O)[C@H](CC1CCCCC1)NC(=O)[C@H](CC1CCCCC1)NC(=O)[C@H](Cc1c[nH]cn1)NC(=O)[C@H](CCCNC(=N)N)NC(=O)[C@H]1CCCN1C(=O)[C@H](CO)NC(C)=O)C(=O)N[C@@H](CC(C)C)C(=O)NC(C)(C)C(=O)N[C@H](C(=O)N[C@@H](CCCNC(=N)N)C(=O)N[C@@H](CCC(N)=O)C(=O)N[C@@H](CCCNC(=N)N)C(=O)N[C@@H](CC1CCCCC1)C(N)=O)[C@@H](C)O
B6: Cyclohexanecarbonyl-[Cha27,36, Ile28,31, Asn(Me)29]-PYY(25-36) (peptide)
peptide: Cyclohexanecarbonyl-RH[Cha]I[Asn(Me)]LITRQR[Cha]-NH2
SMILES: CC[C@H](C)[C@H](NC(=O)[C@H](CC1CCCCC1)NC(=O)[C@H](Cc1c[nH]cn1)NC(=O)[C@H](CCCNC(=N)N)NC(=O)C1CCCCC1)C(=O)N[C@@H](CC(=O)NC)C(=O)N[C@@H](CC(C)C)C(=O)N[C@H](C(=O)N[C@H](C(=O)N[C@@H](CCCNC(=N)N)C(=O)N[C@@H](CCC(N)=O)C(=O)N[C@@H](CCCNC(=N)N)C(=O)N[C@@H](CC1CCCCC1)C(N)=O)[C@@H](C)O)[C@@H](C)CC
B7: Benzoyl-[Cha27,36, Ile28, Pya(4)31]-PYY(25-36) (peptide)
peptide: Bz-RH[Cha]INL[4Pal]TRQR[Cha]-NH2
SMILES: CC[C@H](C)[C@H](NC(=O)[C@H](CC1CCCCC1)NC(=O)[C@H](Cc1c[nH]cn1)NC(=O)[C@H](CCCNC(=N)N)NC(=O)c1ccccc1)C(=O)N[C@@H](CC(N)=O)C(=O)N[C@@H](CC(C)C)C(=O)N[C@@H](Cc1ccncc1)C(=O)N[C@H](C(=O)N[C@@H](CCCNC(=N)N)C(=O)N[C@@H](CCC(N)=O)C(=O)N[C@@H](CCCNC(=N)N)C(=O)N[C@@H](CC1CCCCC1)C(N)=O)[C@@H](C)O
B8: 3-Carboxypropionyl-[Acp22, D-Pro24, Cha27,36, Leu(Me)28, Lys30, Aib31]-PYY(22-36) (peptide)
peptide: Suc-[Ahx]S[dP]RH[Cha][tBuAla]NK[Aib]TRQR[Cha]-NH2
SMILES: C[C@@H](O)[C@H](NC(=O)C(C)(C)NC(=O)[C@H](CCCCN)NC(=O)[C@H](CC(N)=O)NC(=O)[C@H](CC(C)(C)C)NC(=O)[C@H](CC1CCCCC1)NC(=O)[C@H](Cc1c[nH]cn1)NC(=O)[C@H](CCCNC(=N)N)NC(=O)[C@H]1CCCN1C(=O)[C@H](CO)NC(=O)CCCCCNC(=O)CCC(=O)O)C(=O)N[C@@H](CCCNC(=N)N)C(=O)N[C@@H](CCC(N)=O)C(=O)N[C@@H](CCCNC(=N)N)C(=O)N[C@@H](CC1CCCCC1)C(N)=O
B9: Benzoyl-[Cha27,36, Nal(1)28, Aib31]-PYY(25-36) (peptide)
peptide: Bz-RH[Cha][1Nal]NL[Aib]TRQR[Cha]-NH2
SMILES: CC(C)C[C@H](NC(=O)[C@H](CC(N)=O)NC(=O)[C@H](Cc1cccc2ccccc12)NC(=O)[C@H](CC1CCCCC1)NC(=O)[C@H](Cc1c[nH]cn1)NC(=O)[C@H](CCCNC(=N)N)NC(=O)c1ccccc1)C(=O)NC(C)(C)C(=O)N[C@H](C(=O)N[C@@H](CCCNC(=N)N)C(=O)N[C@@H](CCC(N)=O)C(=O)N[C@@H](CCCNC(=N)N)C(=O)N[C@@H](CC1CCCCC1)C(N)=O)[C@@H](C)O
B10: Ac-[D-Pro24, Iva25, Cha27,28,36, Aib31]-PYY(23-36) (peptide)
peptide: Ac-S[dP][Iva]H[Cha][Cha]NL[Aib]TRQR[Cha]-NH2
SMILES: CC[C@](C)(NC(=O)[C@H]1CCCN1C(=O)[C@H](CO)NC(C)=O)C(=O)N[C@@H](Cc1c[nH]cn1)C(=O)N[C@@H](CC1CCCCC1)C(=O)N[C@@H](CC1CCCCC1)C(=O)N[C@@H](CC(N)=O)C(=O)N[C@@H](CC(C)C)C(=O)NC(C)(C)C(=O)N[C@H](C(=O)N[C@@H](CCCNC(=N)N)C(=O)N[C@@H](CCC(N)=O)C(=O)N[C@@H](CCCNC(=N)N)C(=O)N[C@@H](CC1CCCCC1)C(N)=O)[C@@H](C)O
B11: Benzoyl-[Cha27,36, Ile28, Phe(4NH2)31]-PYY(25-36) (peptide)
peptide: Bz-RH[Cha]INL[Phe(4-NH2)]TRQR[Cha]-NH2
SMILES: CC[C@H](C)[C@H](NC(=O)[C@H](CC1CCCCC1)NC(=O)[C@H](Cc1c[nH]cn1)NC(=O)[C@H](CCCNC(=N)N)NC(=O)c1ccccc1)C(=O)N[C@@H](CC(N)=O)C(=O)N[C@@H](CC(C)C)C(=O)N[C@@H](Cc1ccc(N)cc1)C(=O)N[C@H](C(=O)N[C@@H](CCCNC(=N)N)C(=O)N[C@@H](CCC(N)=O)C(=O)N[C@@H](CCCNC(=N)N)C(=O)N[C@@H](CC1CCCCC1)C(N)=O)[C@@H](C)O
B12: Benzoyl-[Cha27,36, Ile28, Dap31]-PYY(25-36) (peptide)
peptide: Bz-RH[Cha]INL[Dap]TRQR[Cha]-NH2
SMILES: CC[C@H](C)[C@H](NC(=O)[C@H](CC1CCCCC1)NC(=O)[C@H](Cc1c[nH]cn1)NC(=O)[C@H](CCCNC(=N)N)NC(=O)c1ccccc1)C(=O)N[C@@H](CC(N)=O)C(=O)N[C@@H](CC(C)C)C(=O)N[C@@H](CN)C(=O)N[C@H](C(=O)N[C@@H](CCCNC(=N)N)C(=O)N[C@@H](CCC(N)=O)C(=O)N[C@@H](CCCNC(=N)N)C(=O)N[C@@H](CC1CCCCC1)C(N)=O)[C@@H](C)O
B13: Ac-[Acp22, Glu23, D-Pro24, Cha27,28,36, Lys30, Aib31]-PYY(22-36) (peptide)
peptide: Ac-[Ahx]E[dP]RH[Cha][Cha]NK[Aib]TRQR[Cha]-NH2
SMILES: CC(=O)NCCCCCC(=O)N[C@@H](CCC(=O)O)C(=O)N1CCC[C@@H]1C(=O)N[C@@H](CCCNC(=N)N)C(=O)N[C@@H](Cc1c[nH]cn1)C(=O)N[C@@H](CC1CCCCC1)C(=O)N[C@@H](CC1CCCCC1)C(=O)N[C@@H](CC(N)=O)C(=O)N[C@@H](CCCCN)C(=O)NC(C)(C)C(=O)N[C@H](C(=O)N[C@@H](CCCNC(=N)N)C(=O)N[C@@H](CCC(N)=O)C(=O)N[C@@H](CCCNC(=N)N)C(=O)N[C@@H](CC1CCCCC1)C(N)=O)[C@@H](C)O
B14: Ac-[D-Pro24, D-Iva26, Cha27,28,36, Aib31]-PYY(23-36) (peptide)
peptide: Ac-S[dP]R[dIva][Cha][Cha]NL[Aib]TRQR[Cha]-NH2
SMILES: CC[C@@](C)(NC(=O)[C@H](CCCNC(=N)N)NC(=O)[C@H]1CCCN1C(=O)[C@H](CO)NC(C)=O)C(=O)N[C@@H](CC1CCCCC1)C(=O)N[C@@H](CC1CCCCC1)C(=O)N[C@@H](CC(N)=O)C(=O)N[C@@H](CC(C)C)C(=O)NC(C)(C)C(=O)N[C@H](C(=O)N[C@@H](CCCNC(=N)N)C(=O)N[C@@H](CCC(N)=O)C(=O)N[C@@H](CCCNC(=N)N)C(=O)N[C@@H](CC1CCCCC1)C(N)=O)[C@@H](C)O

Target: human Y2 receptor (human) (UniProt P49146)
Experiment: RBA: [125I]-PYY displacement, hY2R/CHO membranes

Chain of human Y2 receptor (human) (P49146 whole entry): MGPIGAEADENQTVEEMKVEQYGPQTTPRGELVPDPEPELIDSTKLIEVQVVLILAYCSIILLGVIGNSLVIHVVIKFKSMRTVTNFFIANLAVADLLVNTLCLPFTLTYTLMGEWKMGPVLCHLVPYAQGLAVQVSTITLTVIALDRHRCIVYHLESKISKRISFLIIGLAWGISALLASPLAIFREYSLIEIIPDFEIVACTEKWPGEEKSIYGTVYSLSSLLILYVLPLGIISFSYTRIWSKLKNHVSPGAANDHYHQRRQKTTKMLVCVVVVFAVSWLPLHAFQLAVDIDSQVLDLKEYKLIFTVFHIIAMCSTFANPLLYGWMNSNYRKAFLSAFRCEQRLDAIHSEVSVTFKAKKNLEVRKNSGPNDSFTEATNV

Binder | IC50 Ratio (vs PYY(3-36))
B1 | 18
B2 | 14
B3 | 12
B4 | 28
B5 | 71
Piperidinocarbonyl-E[dP]R[4Pal][Cha][Aib]NK[Aib]TRQR[Cha]-NH2 [Piperidinocarbonyl-[Glu23, D-Pro24, Pya(4)26, Cha27,36, Aib28,31, Lys30]-PYY(23-36)] | 3.3
B6 | 76
B7 | 7.6
B8 | 1.7
B9 | 34
B10 | 4.5
B11 | 5
B12 | 37
B13 | 1.7
B14 | 19

Target: human Y2 receptor (human) (UniProt P49146)
Experiment: cell-based or functional assay

Binder | GBA EC50 Ratio (vs PYY(3-36)), [35S]GTPγS
B1 | 15
B2 | 11
B3 | 6.6
B4 | 18
B5 | 37
Piperidinocarbonyl-E[dP]R[4Pal][Cha][Aib]NK[Aib]TRQR[Cha]-NH2 [Piperidinocarbonyl-[Glu23, D-Pro24, Pya(4)26, Cha27,36, Aib28,31, Lys30]-PYY(23-36)] | 2.4
B6 | 37
B7 | 8.5
B8 | 1.2
B9 | 25
B10 | 3.7
B11 | 5.4
B12 | 28
B13 | 1.1
B14 | 13

Source: patent US20120172293A1 (Takeda / Millennium, published 2012)
